Results on 13 molecules are retold here after patent publication US20100310640A1.

Holding throughout (settings): remark: other sources report otherwise
Experiment [1] concerns the target T1, HLA-DR DRB1*0301 (human).
T1 chain 1: not shown
T1 chain 2: not shown
The experiment is described as follows: radioligand inhibition, purified HLA-DR.

The target of experiment [2] is T2, HLA-DR DRB1*1302 (human).
T2 chain 1: not shown
T2 chain 2: not shown
The experiment is described as follows: radioligand inhibition, purified HLA-DR.

For experiment [3], the target named is T3, HLA-DR DRB1*0101 (human).
T3 chain 1: not shown
T3 chain 2: not shown
The experiment is described as follows: radioligand inhibition, purified HLA-DR.

Experiment [4] deals with T4, HLA-DR DRB1*0701 (human).
T4 chain 1: not shown
T4 chain 2: not shown
The experiment is described as follows: radioligand inhibition, purified HLA-DR.

The next experiment deals with T5, HLA-DR DRB1*1201 (human).
T5 chain 1: not shown
T5 chain 2: not shown
The experiment is described as follows: radioligand inhibition, purified HLA-DR.

The target of experiment [5] is T6, HLA-DR DRB1*0401 (human).
T6 chain 1: not shown
T6 chain 2: not shown
Nature of the experiment: radioligand inhibition, purified HLA-DR.

Experiment [6] deals with T7, HLA-DR DRB4*0101 (human).
T7 chain 1: not shown
T7 chain 2: not shown
The experiment is described as follows: radioligand inhibition, purified HLA-DR.

For experiment [7], the target named is T8, HLA-DR DRB1*0405 (human).
T8 chain 1: not shown
T8 chain 2: not shown
The experiment is described as follows: radiolabeled-peptide inhibition, purified HLA-DR.

Experiment [8] deals with T6, HLA-DR DRB1*0401 (human). The experiment is described as follows: radiolabeled-peptide inhibition, purified HLA-DR.
The target in experiment [9] is T9, HLA-DR DRB1*1101 (human).
T9 chain 1: not shown
T9 chain 2: not shown
Nature of the experiment: radiolabeled-peptide inhibition, purified HLA-DR.

In experiment [10] the target is T10, HLA-DR DRB5*0101 (human).
T10 chain 1: not shown
T10 chain 2: not shown
The experiment is described as follows: radiolabeled-peptide inhibition, purified HLA-DR.

The target of experiment [11] is T11, HLA-DR DRB1*0404 (human).
T11 chain 1: not shown
T11 chain 2: not shown
Nature of the experiment: radioligand inhibition, purified HLA-DR.

In experiment [12] the target is T4, HLA-DR DRB1*0701 (human). Nature of the experiment: radiolabeled-peptide inhibition, purified HLA-DR.
For experiment [13], the target named is T9, HLA-DR DRB1*1101 (human). Nature of the experiment: radioligand inhibition, purified HLA-DR.
The next experiment has as its target T12, HLA-DR DRB1*0802 (human).
T12 chain 1: not shown
T12 chain 2: not shown
Nature of the experiment: radioligand inhibition, purified HLA-DR.

The target of experiment [14] is T1, HLA-DR DRB1*0301 (human). The experiment is described as follows: radiolabeled-peptide inhibition, purified HLA-DR.
The target in experiment [15] is T2, HLA-DR DRB1*1302 (human). Nature of the experiment: radiolabeled-peptide inhibition, purified HLA-DR.
For experiment [16], the target named is T7, HLA-DR DRB4*0101 (human). Nature of the experiment: radiolabeled-peptide inhibition, purified HLA-DR.
Experiment [17] concerns the target T11, HLA-DR DRB1*0404 (human). Nature of the experiment: radiolabeled-peptide inhibition, purified HLA-DR.
The target in experiment [18] is T8, HLA-DR DRB1*0405 (human). Nature of the experiment: radioligand inhibition, purified HLA-DR.
Experiment [19] addresses T3, HLA-DR DRB1*0101 (human). The experiment is described as follows: radiolabeled-peptide inhibition, purified HLA-DR.
Experiment [20] concerns the target T10, HLA-DR DRB5*0101 (human). The experiment is described as follows: radioligand inhibition, purified HLA-DR.

B1: Peptide 9019.0022 (peptide)
peptide: APTIRGDPECHLFYN
Broadly, the IC50 is the concentration that inhibits the measured activity by half. A low value points to inhibition by little substance. B1: the half-inhibitory concentration (IC50) stood at 31 nM with HLA-DR DRB1*0301 (human) [1]; 1670 nM with HLA-DR DRB1*1302 (human) [2]; 4030 nM with HLA-DR DRB1*0101 (human) [3]; 16800 nM in the experiment with HLA-DR DRB1*0701 (human) [4]; 16900 nM with HLA-DR DRB1*1201 (human); 1640 nM with HLA-DR DRB1*0401 (human) [5]. In the experiment with HLA-DR DRB4*0101 (human) [6], this molecule showed a half-maximal inhibitory concentration (IC50) of 2510 nM.

B2: 9019.0089 (peptide)
peptide: SDVWSYGVTVWELMT
Consider B2, for which the IC50 with HLA-DR DRB1*0405 (human) [7] turned out to be 1900 nM; in the experiment with HLA-DR DRB1*0401 (human) [8], 2760 nM; with HLA-DR DRB1*1101 (human) [9], 2640 nM; with HLA-DR DRB5*0101 (human) [10], 5420 nM.

B3: CEA.33 peptide 9019.0106 (peptide)
peptide: TAKLTIESTPFNVAE
In the case of B3, the concentration for half-maximal inhibition (IC50) with HLA-DR DRB1*1302 (human) [2] was found to be 35 nM; with HLA-DR DRB1*1201 (human) it was 2310 nM; in the experiment with HLA-DR DRB1*0404 (human) [11], 41 nM; in the experiment with HLA-DR DRB4*0101 (human) [6] it was 53 nM.

B4: 9019.0078 (peptide)
peptide: MAGVGSPYVSRLLGI
In the experiment with HLA-DR DRB1*0701 (human) [12], B4 yielded a concentration for half-maximal inhibition (IC50) of 352 nM.

B5: Cyclin D1.252 (peptide)
peptide: EALLESSLRQAQQNM
In the case of B5, the IC50 with HLA-DR DRB1*0301 (human) [1] was 151 nM; with HLA-DR DRB1*1302 (human) [2], 4760 nM; with HLA-DR DRB1*0101 (human) [3], 8210 nM; in the experiment with HLA-DR DRB1*0401 (human) [5], 605 nM; with HLA-DR DRB1*1101 (human) [13], 756 nM; with HLA-DR DRB1*0404 (human) [11] it was 1020 nM. Further, in the experiment with HLA-DR DRB4*0101 (human) [6], the IC50 was 4030 nM.

B6: CEA.10 peptide 9019.0104 (peptide)
peptide: RWCIPWQRLLLTASL
As for B6, the half-maximal inhibitory concentration (IC50) with HLA-DR DRB1*0301 (human) [1] stood at 7860 nM; in the experiment with HLA-DR DRB1*1302 (human) [2], 2330 nM; with HLA-DR DRB1*1201 (human) it was 1560 nM; in the experiment with HLA-DR DRB1*0802 (human), 263 nM.

B7: 9019.0002 (peptide)
peptide: GMSYLEDVRLVHRDL
For the molecule B7, the IC50 turned out to be 4320 nM in the experiment with HLA-DR DRB1*0405 (human) [7]; 27 nM in the experiment with HLA-DR DRB1*0301 (human) [14]; 3790 nM with HLA-DR DRB1*1302 (human) [15]; 5410 nM with HLA-DR DRB1*0701 (human) [12]; 244 nM with HLA-DR DRB1*1101 (human) [9]; 2540 nM in the experiment with HLA-DR DRB4*0101 (human) [16].

B8: 9019.0068 (peptide)
peptide: ILLVVVLGVVFGILI
As for B8, the IC50 with HLA-DR DRB1*0405 (human) [7] stood at 376 nM; with HLA-DR DRB1*1302 (human) [15] it was 478 nM; with HLA-DR DRB1*0701 (human) [12], 780 nM; with HLA-DR DRB1*0401 (human) [8] it was 635 nM; with HLA-DR DRB1*1101 (human) [9], 2460 nM; with HLA-DR DRB1*0404 (human) [17] it was 3530 nM. Besides, the IC50 with HLA-DR DRB4*0101 (human) [16] was found to be 11000 nM.

B9: Peptide 9019.0185 (peptide)
peptide: LKSGMKELAVFREKV
In the case of B9, the results for the IC50 with HLA-DR DRB1*0405 (human) [18] and with HLA-DR DRB1*0802 (human) were 34 nM and 260 nM, respectively.

B10: 1622.03 (peptide)
peptide: KIPVAIKVLRENTSP
Turning to B10, the IC50 amounted to 1500 nM in the experiment with HLA-DR DRB1*0101 (human) [19]; 3860 nM with HLA-DR DRB1*0401 (human) [8]; 4110 nM with HLA-DR DRB1*1101 (human) [9]; 125 nM with HLA-DR DRB1*0404 (human) [17]; 7800 nM with HLA-DR DRB4*0101 (human) [16]; 1500 nM with HLA-DR DRB5*0101 (human) [10].

B11: 9019.0048 (peptide)
peptide: PESFDGDPASNTAPL
B11: the concentration for half-maximal inhibition (IC50) with HLA-DR DRB1*0301 (human) [14] was 989 nM; with HLA-DR DRB1*1302 (human) [15] it was 3900 nM; with HLA-DR DRB1*0701 (human) [12], 2820 nM; with HLA-DR DRB1*1101 (human) [9] it was 12600 nM; in the experiment with HLA-DR DRB1*0404 (human) [17], 9020 nM.

B12: 9019.0083 (peptide)
peptide: CMQIAKGMSYLEDVR
On to B12, for which the IC50 with HLA-DR DRB1*1302 (human) [15] worked out at 2230 nM; with HLA-DR DRB1*0701 (human) [12], 116 nM; in the experiment with HLA-DR DRB1*0401 (human) [8], 2650 nM; in the experiment with HLA-DR DRB1*0404 (human) [17], 867 nM; with HLA-DR DRB4*0101 (human) [16], 3000 nM; with HLA-DR DRB5*0101 (human) [10], 130 nM.

B13: CEA.24 peptide 9019.0105 (peptide)
peptide: LLTFWNPPTTAKLTI
Turning to B13, the concentration for half-maximal inhibition (IC50) with HLA-DR DRB1*0101 (human) [3] turned out to be 69 nM; in the experiment with HLA-DR DRB1*0701 (human) [4] it was 3.7 nM; with HLA-DR DRB1*1201 (human), 3000 nM; with HLA-DR DRB1*1101 (human) [13] it was 52 nM; with HLA-DR DRB1*0404 (human) [11], 52 nM; in the experiment with HLA-DR DRB5*0101 (human) [20], 31 nM.
